# US20140087995A1 (published 2014)
# Numbered stars: 1 amine (or outer) side, 2 acyl side, 3 side chain; on linkers, the order of the positions; unused ones are H or OH. Bridge positions count the residues as written; N and C are the ends. * marks the point of attachment. C20 diacid = O=C(O)CCCCCCCCCCCCCCCCCCC(=O)*; γGlu = O=C(O)[C@H](CCC(=O)[*:2])N[*:1]
# T1: human calcitonin receptor (human, UniProt P30988 25-474)
# T1 construct: whole, on cells; Assay used cell membranes of the transfected BHK cells; also called hCTR; hCT
# T1 sequence (looked up): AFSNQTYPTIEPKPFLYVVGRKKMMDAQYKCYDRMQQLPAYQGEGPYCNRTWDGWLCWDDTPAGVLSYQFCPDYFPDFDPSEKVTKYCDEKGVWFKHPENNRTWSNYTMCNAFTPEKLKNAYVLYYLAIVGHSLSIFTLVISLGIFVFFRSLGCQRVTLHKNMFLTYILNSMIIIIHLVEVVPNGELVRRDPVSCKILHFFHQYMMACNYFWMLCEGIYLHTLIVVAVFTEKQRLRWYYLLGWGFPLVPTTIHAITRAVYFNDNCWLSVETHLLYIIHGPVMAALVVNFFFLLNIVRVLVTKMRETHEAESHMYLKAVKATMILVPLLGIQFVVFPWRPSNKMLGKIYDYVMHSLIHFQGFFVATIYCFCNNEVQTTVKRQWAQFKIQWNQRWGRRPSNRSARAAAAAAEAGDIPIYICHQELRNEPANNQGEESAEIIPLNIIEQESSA
# B1: N^α1-[2-[2-[2-[[2-[2-[2-[[(4S)-4-carboxy-4-(19-carboxynonadecanoylamino)butanoyl]amino]ethoxy]ethoxy]acetyl]amino]ethoxy]ethoxy]acetyl]-[Glu14,Arg17,Pro21,Pro27 … (peptide)
# peptide: KCNTATCATQRLAEFLRHSSPNFGAIPSSTNVGSNTY
# modifications: C20 diacid-gGlu-2xOEG on the alpha amino group of the N-terminal residue (Lys1); disulfide Cys2-Cys7; C-terminal amide
# notes: Synthetic analogue; also called compound 19
# B2: N^α1-[(4S)-4-carboxy-4-(19-carboxynonadecanoylamino)butanoyl]-[Arg17,Pro21,Pro27,His34]-h-amylin (peptide)
# peptide: KCNTATCATQRLANFLRHSSPNFGAIPSSTNVGHNTY
# modifications: C20 diacid-gGlu on the alpha amino group of the N-terminal residue (Lys1); disulfide Cys2-Cys7; C-terminal amide
# notes: Synthetic analogue; also called compound 40
# B3: N^α1-[(4S)-4-carboxy-4-(19-carboxynonadecanoylamino)butanoyl]-[Arg17,Pro21,Pro27,Glu35]-h-amylin (peptide)
# peptide: KCNTATCATQRLANFLRHSSPNFGAIPSSTNVGSETY
# modifications: C20 diacid-gGlu on the alpha amino group of the N-terminal residue (Lys1); disulfide Cys2-Cys7; C-terminal amide
# notes: Synthetic analogue; also called compound 23
# B4: N^α1-[(4S)-4-carboxy-4-(19-carboxynonadecanoylamino)butanoyl]-[Arg17,Pro21,Pro27,Pro31,Glu35]-h-amylin (peptide)
# peptide: {C20 diacid-γGlu}-KCNTATCATQRLANFLRHSSPNFGAIPSSTPVGSETY-NH2
# modifications: disulfide 2-7
# SMILES: CC[C@H](C)[C@H](NC(=O)[C@H](C)NC(=O)CNC(=O)[C@H](Cc1ccccc1)NC(=O)[C@H](CC(N)=O)NC(=O)[C@@H]1CCCN1C(=O)[C@H](CO)NC(=O)[C@H](CO)NC(=O)[C@H](Cc1c[nH]cn1)NC(=O)[C@H](CCCNC(=N)N)NC(=O)[C@H](CC(C)C)NC(=O)[C@H](Cc1ccccc1)NC(=O)[C@H](CC(N)=O)NC(=O)[C@H](C)NC(=O)[C@H](CC(C)C)NC(=O)[C@H](CCCNC(=N)N)NC(=O)[C@H](CCC(N)=O)NC(=O)[C@@H](NC(=O)[C@H](C)NC(=O)[C@@H]1CSSC[C@H](NC(=O)[C@H](CCCCN)NC(=O)CC[C@H](NC(=O)CCCCCCCCCCCCCCCCCCC(=O)O)C(=O)O)C(=O)N[C@@H](CC(N)=O)C(=O)N[C@@H]([C@@H](C)O)C(=O)N[C@@H](C)C(=O)N[C@@H]([C@@H](C)O)C(=O)N1)[C@@H](C)O)C(=O)N1CCC[C@H]1C(=O)N[C@@H](CO)C(=O)N[C@@H](CO)C(=O)N[C@H](C(=O)N1CCC[C@H]1C(=O)N[C@H](C(=O)NCC(=O)N[C@@H](CO)C(=O)N[C@@H](CCC(=O)O)C(=O)N[C@H](C(=O)N[C@@H](Cc1ccc(O)cc1)C(N)=O)[C@@H](C)O)C(C)C)[C@@H](C)O
# notes: Synthetic analogue; also called compound 28
# B5: N^α1-[(4S)-4-carboxy-4-(19-carboxynonadecanoylamino)butanoyl]-[Arg17,Pro21,Pro27,Pro34,Glu35]-h-amylin (peptide)
# peptide: {C20 diacid-γGlu}-KCNTATCATQRLANFLRHSSPNFGAIPSSTNVGPETY-NH2
# modifications: disulfide 2-7
# SMILES: CC[C@H](C)[C@H](NC(=O)[C@H](C)NC(=O)CNC(=O)[C@H](Cc1ccccc1)NC(=O)[C@H](CC(N)=O)NC(=O)[C@@H]1CCCN1C(=O)[C@H](CO)NC(=O)[C@H](CO)NC(=O)[C@H](Cc1c[nH]cn1)NC(=O)[C@H](CCCNC(=N)N)NC(=O)[C@H](CC(C)C)NC(=O)[C@H](Cc1ccccc1)NC(=O)[C@H](CC(N)=O)NC(=O)[C@H](C)NC(=O)[C@H](CC(C)C)NC(=O)[C@H](CCCNC(=N)N)NC(=O)[C@H](CCC(N)=O)NC(=O)[C@@H](NC(=O)[C@H](C)NC(=O)[C@@H]1CSSC[C@H](NC(=O)[C@H](CCCCN)NC(=O)CC[C@H](NC(=O)CCCCCCCCCCCCCCCCCCC(=O)O)C(=O)O)C(=O)N[C@@H](CC(N)=O)C(=O)N[C@@H]([C@@H](C)O)C(=O)N[C@@H](C)C(=O)N[C@@H]([C@@H](C)O)C(=O)N1)[C@@H](C)O)C(=O)N1CCC[C@H]1C(=O)N[C@@H](CO)C(=O)N[C@@H](CO)C(=O)N[C@H](C(=O)N[C@@H](CC(N)=O)C(=O)N[C@H](C(=O)NCC(=O)N1CCC[C@H]1C(=O)N[C@@H](CCC(=O)O)C(=O)N[C@H](C(=O)N[C@@H](Cc1ccc(O)cc1)C(N)=O)[C@@H](C)O)C(C)C)[C@@H](C)O
# notes: Synthetic analogue; also called compound 29
# B6: N^α1-[(4S)-4-carboxy-4-(19-carboxynonadecanoylamino)butanoyl]-[Glu14,Arg17,Pro21,Pro27,Arg35]-h-amylin (peptide)
# peptide: {C20 diacid-γGlu}-KCNTATCATQRLAEFLRHSSPNFGAIPSSTNVGSRTY-NH2
# modifications: disulfide 2-7
# SMILES: CC[C@H](C)[C@H](NC(=O)[C@H](C)NC(=O)CNC(=O)[C@H](Cc1ccccc1)NC(=O)[C@H](CC(N)=O)NC(=O)[C@@H]1CCCN1C(=O)[C@H](CO)NC(=O)[C@H](CO)NC(=O)[C@H](Cc1c[nH]cn1)NC(=O)[C@H](CCCNC(=N)N)NC(=O)[C@H](CC(C)C)NC(=O)[C@H](Cc1ccccc1)NC(=O)[C@H](CCC(=O)O)NC(=O)[C@H](C)NC(=O)[C@H](CC(C)C)NC(=O)[C@H](CCCNC(=N)N)NC(=O)[C@H](CCC(N)=O)NC(=O)[C@@H](NC(=O)[C@H](C)NC(=O)[C@@H]1CSSC[C@H](NC(=O)[C@H](CCCCN)NC(=O)CC[C@H](NC(=O)CCCCCCCCCCCCCCCCCCC(=O)O)C(=O)O)C(=O)N[C@@H](CC(N)=O)C(=O)N[C@@H]([C@@H](C)O)C(=O)N[C@@H](C)C(=O)N[C@@H]([C@@H](C)O)C(=O)N1)[C@@H](C)O)C(=O)N1CCC[C@H]1C(=O)N[C@@H](CO)C(=O)N[C@@H](CO)C(=O)N[C@H](C(=O)N[C@@H](CC(N)=O)C(=O)N[C@H](C(=O)NCC(=O)N[C@@H](CO)C(=O)N[C@@H](CCCNC(=N)N)C(=O)N[C@H](C(=O)N[C@@H](Cc1ccc(O)cc1)C(N)=O)[C@@H](C)O)C(C)C)[C@@H](C)O
# notes: Synthetic analogue; also called compound 16
# B7: N^α1-[(4S)-4-carboxy-4-(19-carboxynonadecanoylamino)butanoyl]-[Glu14,Arg17,Pro21,Pro26]-h-amylin (peptide)
# peptide: {C20 diacid-γGlu}-KCNTATCATQRLAEFLRHSSPNFGAPLSSTNVGSNTY-NH2
# modifications: disulfide 2-7
# SMILES: CC(C)C[C@H](NC(=O)[C@H](CCCNC(=N)N)NC(=O)[C@H](CCC(N)=O)NC(=O)[C@@H](NC(=O)[C@H](C)NC(=O)[C@@H]1CSSC[C@H](NC(=O)[C@H](CCCCN)NC(=O)CC[C@H](NC(=O)CCCCCCCCCCCCCCCCCCC(=O)O)C(=O)O)C(=O)N[C@@H](CC(N)=O)C(=O)N[C@@H]([C@@H](C)O)C(=O)N[C@@H](C)C(=O)N[C@@H]([C@@H](C)O)C(=O)N1)[C@@H](C)O)C(=O)N[C@@H](C)C(=O)N[C@@H](CCC(=O)O)C(=O)N[C@@H](Cc1ccccc1)C(=O)N[C@@H](CC(C)C)C(=O)N[C@@H](CCCNC(=N)N)C(=O)N[C@@H](Cc1c[nH]cn1)C(=O)N[C@@H](CO)C(=O)N[C@@H](CO)C(=O)N1CCC[C@H]1C(=O)N[C@@H](CC(N)=O)C(=O)N[C@@H](Cc1ccccc1)C(=O)NCC(=O)N[C@@H](C)C(=O)N1CCC[C@H]1C(=O)N[C@@H](CC(C)C)C(=O)N[C@@H](CO)C(=O)N[C@@H](CO)C(=O)N[C@H](C(=O)N[C@@H](CC(N)=O)C(=O)N[C@H](C(=O)NCC(=O)N[C@@H](CO)C(=O)N[C@@H](CC(N)=O)C(=O)N[C@H](C(=O)N[C@@H](Cc1ccc(O)cc1)C(N)=O)[C@@H](C)O)C(C)C)[C@@H](C)O
# notes: Synthetic analogue; also called compound 7
# B8: N^α1-[(4S)-4-carboxy-4-(19-carboxynonadecanoylamino)butanoyl]-[Arg17,Pro21,Pro27,Arg34]-h-amylin (peptide)
# peptide: KCNTATCATQRLANFLRHSSPNFGAIPSSTNVGRNTY
# modifications: C20 diacid-gGlu on the alpha amino group of the N-terminal residue (Lys1); disulfide Cys2-Cys7; C-terminal amide
# notes: Synthetic analogue; also called compound 39
# What was measured:
# [1] = target: T1, human calcitonin receptor; assay: ratio IC50 hCTR / IC50 hAmylin-R of the two SPA competition assays; reference: human amylin receptor
# Protocol: The resulting pellet was resuspended, homogenized and centrifuged (20.000 rpm, 15 min) in a buffer containing 20 mM Na-HEPES and 0.1 mM EDTA (pH 7.4, buffer 2). The resulting pellet was resuspended in buffer 2 and protein concentration was measured (BCA protein Assay, Pierce). The homogenate was kept cold during the whole procedure. The membranes were kept at −80° C. until use. The assay was performed in a 384 well Optiplate (PerkinElmer) in a total volume of 40 ul. Membranes were mixed with SPA beads. Final concentration of membranes 35 ng/μL final and SPA beads was 0.05 mg/well. Test-compounds were dissolved in DMSO and further diluted in assay buffer (50 mM Hepes, pH 7.4, 1 mM CaCl2, 5 mM MgCl₂, 0.1% OA and 0.02% Tween20). […] The final mixture was incubated with shaking at 400 rpm for 120 min at 25° C. prior to centrifugation (1500 rpm, 10 min). Samples were analyzed on TopCounter™ (Packard). The IC₅₀ was calculated using (one site binding competition analysis) GraphPad Prism5 as a measure of receptor affinity.
# Membranes were prepared in the following way; the cells were rinsed with PBS and incubated with Versene for approximately 5 min before harvesting. The cells were flushed with PBS and the cell-suspension was centrifuged for 5 min at 1000 rpm. Cells were homogenized (Ultrathurrax) in a buffer containing 20 mM Na-HEPES and 10 mM EDTA (pH 7.4) and centrifuged at 20.000 rpm for 15 min. The resulting pellet was resuspended, homogenized and centrifuged (20.000 rpm, 15 min) in a buffer containing 20 mM Na-HEPES and 0.1 mM EDTA (pH 7.4, buffer 2). The resulting pellet was resuspended in buffer 2 and protein concentration was measured (BCA protein Assay, Pierce). The homogenate was kept cold during the whole procedure. The membranes were kept at −80° C. until use. Assay was performed in a 384 well Optiplate (PerkinElmer) in a total volume of 40 ul. Membranes were mixed with SPA beads.
# [2] = target: T1, human calcitonin receptor; assay: SPA radioligand competition (125I-calcitonin), membranes of BHK cells with human calcitonin receptor
# Outline: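 BHK hCTR membranes 35 ng/μL + SPA beads 0.05 mg/well; buffer 50 mM Hepes pH 7.4, 1 mM CaCl2, 5 mM MgCl₂, 0.1% OA, 0.02% Tween20. 120 min, 25° C., shaking. Scintillation count; IC50 by one-site binding competition.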
Binder,Ratio hCT/hAmylin binding [1],IC50 [2]
B1,36.7,0.0204 µM
B2,31.1,0.0171 µM
B3,25,0.0218 µM
B4,20.5,0.0125 µM
B5,13.9,0.00801 µM
B6,19.1,0.0171 µM
B7,16.5,0.0111 µM
B8,29,0.0193 µM
